Source: publication PMC11270187 (2024)
Numbering of substitutions follows the chain as printed. Names may count otherwise. Read-outs that look alike come from different tables or passages of the source.

B1: parental 44H10 IgG (antibody, V domains shown)
VH: QVQLKESGPGLVAPSQSLSITCTVSGFSLTSYGVHWVRQPPGKGLEWLGVIWAGGSINYNSALMSRLSISKDNFKSQVFLKMSSLQTDDTAMYYCARAYGDYVHYAMDYWGQGTSVTASS
VL: DIQMTQSPSSLSASLGQRVSLTCRASQEISGYLTWLQQKPDGTIKRLVYAASTLDSGVPKRFSGSRSGSDYSLTISSLESEDFADYYCLQYTNYPLTFGAGTKLELK
B2: humanized 44H10 version 17 IgG (antibody, V domains shown)
VH: QVTLKESGPVLVKPTETLTLTCTVSGFSLTSYGVHWIRQPPGKALEWLAVIWAGGSISYSTSLMSRLTISKDTSKSQVVLTMTNMDPVDTATYYCARAYGDYVHYAMDYWGQGTLVTVSS
VL: DIQMTQSPSSLSASVGDRVTITCRASQEISGYLTWLQQKPGKAPKLLIYAASTLDSGVPSRFSGSGSGTDFTLTISSLQPEDFATYYCLQYTNYPLTFGQGTKLEIK
B3: humanized 44H10 version 21 IgG (V17 with light chain S60K and G66R back-mutations) (antibody, V domains shown)
VH: B2 VH
VL: B2 VL with S60K, G66R
B4: humanized 44H10 version 22 IgG (antibody, V domains shown)
VH: QVQLQESGPGLVKPSETLSLTCTVSGFSLTSYGVHWIRQPPGKGLEWIGVIWAGGSINYNSALMSRVTISKDTSKNQVSLKLSSVTAADTAVYYCARAYGDYVHYAMDYWGQGTLVTVSS
VL: B2 VL with S60K, G66R

Tests used:
HLA-DR on BJAB cells [1] = biological target: T1, HLA-DR on BJAB cells (human (endogenous in BJAB), UniProt P01903 26-254; P01911 30-266); test: FACS
HLA-DR on BJAB cells [2] = biological target: T1, HLA-DR on BJAB cells; test: FACS; remark: listed apart in the source
[3] = biological target: T2, recombinant HLA-DR (uncleaved) (human, UniProt P01903 28-206; P01911 30-219); test: BLI; apparent
[4] = biological target: T2, recombinant HLA-DR (uncleaved); test: BLI; apparent; remark: listed apart in the source
HLA-DR on BJAB cells [5] = biological target: T1, HLA-DR on BJAB cells; test: FACS; remark: listed apart in the source
[6] = biological target: T2, recombinant HLA-DR (uncleaved); test: BLI; apparent; remark: listed apart in the source

Row | Binder | EC50 (HLA-DR on BJAB cells [1]) [nM] | EC50 (HLA-DR on BJAB cells [2]) [nM] | also measured
1 | B1 | 1 | 0.8 | Kd [3]: 2.2 nM
2 | B2 | – | 43 | –
3 | B3 | – | – | Kd [4]: 95 nM; EC50 (HLA-DR on BJAB cells [5]): 14 nM
4 | B4 | 1.7 | – | Kd [6]: 29 nM
